These results are taken from publication PMC3855486, “New Insights into the Phylogeny and Molecular Classification of Nicotinamide Mononucleotide Deamidases” (PLoS ONE, 2013).

The term Km denotes the concentration of substrate that gives half-maximal velocity. By kcat is commonly meant the number of substrate molecules converted per active site and unit of time at saturation.

Substrate in this series: NC(=O)c1ccc[n+]([C@@H]2O[C@H](COP(=O)(O)O)[C@@H](O)[C@H]2O)c1
Put plainly: HPLC, decrease of NMN peak area. The class given is biochemical, Oceanobacillus iheyensis. The settings on record: 50 mM phosphate buffer pH 7.5, 37 °C, Michaelian, NMN 0.01-1 mM.

B1: OiPncC (Oceanobacillus iheyensis HTE831) (protein)
chain: MKNYQAEIVAVGTELLLGQIANTNAQWLSEKLATYGINMYNHTVVGDNLERVEQAFQLAQSRSNIIIVTGGLGPTADDLTREGFQQMTGLPLVEDKESMEKIEGFFQNRGRTMTPNNRKQARVFEGSTVLNNKAGMAPGMYVHYQSCHWFFLPGVPREMKHISQEELFPFLEKVTGKQRIIQSVVLKFIGIGESTLEHTLSDLIEKQTNPTIAPLAQDQAVVIRLTARGETKQEAEAMLEQTKKLILARVGEHYFGENEESIEDIVVQQLQDLGYSISAAESITGGMFSQRLVSVTGASNVFAGSFITYQSRIKEEVLEVPSEIIHSQGVVSRACSDAMASNVTRKIQTNLGISFTGIAGPDEQEGKPVGTVYISIADGDEVVVSKQFNFTGNRNHIRDRACLKGFELIYQYLKSKS
notes: full length, 417 residues (gene misprinted as 417 bp), MocF-CinA two-domain; C-terminal His6 (pET24b), E. coli Rosetta2(DE3)
Take B1: the Km was determined as 180 ± 20 µM and the kcat was determined as 0.38 ± 0.01 s⁻¹.
